Assay results reported in IntAct's records for PubMed 17157788.

B1: Protein AATF (Homo sapiens), Q9NY61 (parent)
chain: MAGPQPLALQLEQLLNPRPSEADPEADPEEATAARVIDRFDEGEDGEGDFLVVGSIRKLASASLLDTDKRYCGKTTSRKAWNEDHWEQTLPGSSDEEISDEEGSGDEDSEGLGLEEYDEDDLGAAEEQECGDHRESKKSRSHSAKTPGFSVQSISDFEKFTKGMDDLGSSEEEEDEESGMEEGDDAEDSQGESEEDRAGDRNSEDDGVVMTFSSVKVSEEVEKGRAVKNQIALWDQLLEGRIKLQKALLTTNQLPQPDVFPLFKDKGGPEFSSALKNSHKALKALLRSLVGLQEELLFQYPDTRYLVDGTKPNAGSEEISSEDDELVEEKKQQRRRVPAKRKLEMEDYPSFMAKRFADFTVYRNRTLQKWHDKTKLASGKLGKGFGAFERSILTQIDHILMDKERLLRRTQTKRSVYRVLGKPEPAAQPVPESLPGEPEILPQAPANAHLKDLDEEIFDDDDFYHQLLRELIERKTSSLDPNDQVAMGRQWLAIQKLRSKIHKKVDRKASKGRKLRFHVLSKLLSFMAPIDHTTMNDDARTELYRSLFGQLHPPDEGHGD

Variants of: B1
Details: with atm_human ATM

Row | effect of a mutation on the interaction | Variant
1 | disrupting interaction | MAGPQPLALQLEQLLNPRPSEADPEADPEEATAARVIDRFDEGEDGEGDFLVVGSIRKLASASLLDTDKRYCGKTTSRKAWNEDHWEQTLPGSSDEEISDEEGSGDEDSEGLGLEEYDEDDLGAAEEQECGDHRESKKSRSHSAKTPGFSVQSISDFEKFTKGMDDLGSSEEEEDEESGMEEGDDAEDAQGESEEDRAGDRNSEDDGVVMTFSSVKVSEEVEKGRAVKNQIALWDQLLEGRIKLQKALLTTNQLPQPDVFPLFKDKGGPEFSSALKNSHKALKALLRSLVGLQEELLFQYPDTRYLVDGTKPNAGSEEISSEDDELVEEKKQQRRRVPAKRKLEMEDYPSFMAKRFADFTVYRNRTLQKWHDKTKLASGKLGKGFGAFERSILTQIDHILMDKERLLRRTQTKRSVYRVLGKPEPAAQPVPESLPGEPEILPQAPANAHLKDLDEEIFDDDDFYHQLLRELIERKTSSLDPNDQVAMGRQWLAIQKLRSKIHKKVDRKASKGRKLRFHVLSKLLSFMAPIDHTTMNDDARTELYRSLFGQLHPPDEGHGD [S189A]

Variants of: B1
Details: with chk2_human CHEK2, O96017
Chain of chk2_human CHEK2, O96017 (O96017 whole entry): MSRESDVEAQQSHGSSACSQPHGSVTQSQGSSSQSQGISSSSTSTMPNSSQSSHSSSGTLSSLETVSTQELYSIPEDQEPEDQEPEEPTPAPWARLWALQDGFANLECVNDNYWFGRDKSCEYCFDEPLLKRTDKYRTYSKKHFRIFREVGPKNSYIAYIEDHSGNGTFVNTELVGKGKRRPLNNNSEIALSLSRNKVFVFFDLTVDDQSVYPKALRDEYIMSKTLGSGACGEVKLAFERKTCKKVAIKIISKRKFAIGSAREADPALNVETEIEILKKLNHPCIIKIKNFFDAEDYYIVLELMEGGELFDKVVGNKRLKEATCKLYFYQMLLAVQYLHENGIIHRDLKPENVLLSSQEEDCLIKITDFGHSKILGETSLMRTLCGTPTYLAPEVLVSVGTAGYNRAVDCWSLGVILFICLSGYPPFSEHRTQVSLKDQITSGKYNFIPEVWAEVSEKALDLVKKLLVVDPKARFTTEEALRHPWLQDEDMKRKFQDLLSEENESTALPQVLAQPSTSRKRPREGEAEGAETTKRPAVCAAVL

Row | effect of a mutation on the interaction | Variant
2 | decreasing interaction | MAGPQPLALQLEQLLNPRPSEADPEADPEEATAARVIDRFDEGEDGEGDFLVVGSIRKLASASLLDTDKRYCGKTTSRKAWNEDHWEQTLPGSSDEEISDEEGSGDEDSEGLGLEEYDEDDLGAAEEQECGDHRESKKSRAHSAKTPGFSVQSISDFEKFTKGMDDLGSSEEEEDEESGMEEGDDAEDSQGESEEDRAGDRNSEDDGVVMTFSSVKVSEEVEKGRAVKNQIALWDQLLEGRIKLQKALLTTNQLPQPDVFPLFKDKGGPEFSSALKNSHKALKALLRSLVGLQEELLFQYPDTRYLVDGTKPNAGSEEISSEDDELVEEKKQQRRRVPAKRKLEMEDYPSFMAKRFADFTVYRNRTLQKWHDKTKLASGKLGKGFGAFERSILTQIDHILMDKERLLRRTQTKRSVYRVLGKPEPAAQPVPESLPGEPEILPQAPANAHLKDLDEEIFDDDDFYHQLLRELIERKTSSLDPNDQVAMGRQWLAIQKLRSKIHKKVDRAASKGRKLRFHVLSKLLSFMAPIDHTTMNDDARTELYRSLFGQLHPPDEGHGD [S141A;K508A]
3 | disrupting interaction | MAGPQPLALQLEQLLNPRPSEADPEADPEEATAARVIDRFDEGEDGEGDFLVVGSIRKLASASLLDTDKRYCGKTTSRKAWNEDHWEQTLPGSSDEEISDEEGSGDEDSEGLGLEEYDEDDLGAAEEQECGDHRESKKSRSHAAKTPGFSVQSISDFEKFTKGMDDLGSSEEEEDEESGMEEGDDAEDSQGESEEDRAGDRNSEDDGVVMTFSSVKVSEEVEKGRAVKNQIALWDQLLEGRIKLQKALLTTNQLPQPDVFPLFKDKGGPEFSSALKNSHKALKALLRSLVGLQEELLFQYPDTRYLVDGTKPNAGSEEISSEDDELVEEKKQQRRRVPAKRKLEMEDYPSFMAKRFADFTVYRNRTLQKWHDKTKLASGKLGKGFGAFERSILTQIDHILMDKERLLRRTQTKRSVYRVLGKPEPAAQPVPESLPGEPEILPQAPANAHLKDLDEEIFDDDDFYHQLLRELIERKTASLDPNDQVAMGRQWLAIQKLRSKIHKKVDRKAAKGRKLRFHVLSKLLSFMAPIDHTTMNDDARTELYRSLFGQLHPPDEGHGD [S143A;S477A;S510A]
4 | decreasing interaction | MAGPQPLALQLEQLLNPRPSEADPEADPEEATAARVIDRFDEGEDGEGDFLVVGSIRKLASASLLDTDKRYCGKTTSRKAWNEDHWEQTLPGSSDEEISDEEGSGDEDSEGLGLEEYDEDDLGAAEEQECGDHRESKKSRAHSAKTPGFSVQSISDFEKFTKGMDDLGSSEEEEDEESGMEEGDDAEDSQGESEEDRAGDRNSEDDGVVMTFSSVKVSEEVEKGRAVKNQIALWDQLLEGRIKLQKALLTTNQLPQPDVFPLFKDKGGPEFSSALKNSHKALKALLRSLVGLQEELLFQYPDTRYLVDGTKPNAGSEEISSEDDELVEEKKQQRRRVPAKRKLEMEDYPSFMAKRFADFTVYRNRTLQKWHDKTKLASGKLGKGFGAFERSILTQIDHILMDKERLLRRTQTKRSVYRVLGKPEPAAQPVPESLPGEPEILPQAPANAHLKDLDEEIFDDDDFYHQLLRELIEAKTSSLDPNDQVAMGRQWLAIQKLRSKIHKKVDRKASKGRKLRFHVLSKLLSFMAPIDHTTMNDDARTELYRSLFGQLHPPDEGHGD [S141A;R474A]

Variants of: B1
Details: with tf65_human RELA

Row | effect of a mutation on the interaction | Variant
5 | disrupting interaction | MAGPQPLALQLEQLLNPRPSEADPEADPEEATAARVIDRFDEGEDGEGDFLVVGSIRKLASASLLDTDKRYCGKTTSRKAWNEDHWEQTLPGSSDEEISDEEGSGDEDSEGLGLEEYDEDDLGAAEEQECGDHRESKKSRSHAAKTPGFSVQSISDFEKFTKGMDDLGSSEEEEDEESGMEEGDDAEDAQGESEEDRAGDRNSEDDGVVMTFSSVKVSEEVEKGRAVKNQIALWDQLLEGRIKLQKALLTTNQLPQPDVFPLFKDKGGPEFSSALKNSHKALKALLRSLVGLQEELLFQYPDTRYLVDGTKPNAGSEEISSEDDELVEEKKQQRRRVPAKRKLEMEDYPSFMAKRFADFTVYRNRTLQKWHDKTKLASGKLGKGFGAFERSILTQIDHILMDKERLLRRTQTKRSVYRVLGKPEPAAQPVPESLPGEPEILPQAPANAHLKDLDEEIFDDDDFYHQLLRELIERKTASLDPNDQVAMGRQWLAIQKLRSKIHKKVDRKAAKGRKLRFHVLSKLLSFMAPIDHTTMNDDARTELYRSLFGQLHPPDEGHGD [S143A;S189A;S477A;S510A]
